The results in this text go back to PMC3295803.

What all share (assay): pressure-induced dissociation followed by light scattering; recombinant oligomers 0.2 mg/ml in 25 mM Tris pH 7.5, 25°C, 1 to 3000 bar in steps of 270 bar and back; without or with 2-mercaptoethanol
Test [1] addresses AgB recombinant subunit rAgB8/1 (Echinococcus granulosus).
Test [2] has as its target AgB recombinant subunit rAgB8/2 (Echinococcus granulosus).
Test [3] has as its target AgB recombinant subunit rAgB8/3 (Echinococcus granulosus).

Turning to AgB recombinant subunit rAgB8/1, the decrease of the light scattering signal after compression in test [1] came to 60%.

In the case of AgB recombinant subunit rAgB8/2, in test [2], the decrease of the light scattering signal after compression came out at 30%.

As to AgB recombinant subunit rAgB8/3, the decrease of the light scattering signal after compression in test [3] came out at 30%.
